Measured values from patent EP4596582A1.

How the values were obtained:
[1] = target: human B7-H3 on human tumor cells (MCF-7, HT29, NCI-N87, HCC1806, HCC827) (human) (UniProt Q5ZPR3); assay: cell-based or functional assay
[2] = target: human B7-H3-4Ig on CHO-S cells (CHO-S-human B7-H3-4Ig) (human) (UniProt Q5ZPR3); assay: cell-based or functional assay
[3] = target: human B7-H3-4Ig-His protein (human) (UniProt Q5ZPR3); assay: ELISA, antigen coated at 1 ug/ml
[4] = target: monkey B7-H3-4Ig-His protein (monkey); assay: ELISA, antigen coated at 1 ug/ml
[5] = target: human B7-H3-4Ig-His protein (human) (UniProt Q5ZPR3); assay: ELISA, antigen coated at 1 ug/ml; remark: listed apart in the source
[6] = target: human B7-H3-4Ig-His protein (human) (UniProt Q5ZPR3); assay: ELISA, antigen coated at 1 ug/ml (specificity panel)

human B7-H3-4Ig-His protein (human), sequence (Q5ZPR3 other isoform, or with tags, fused parts or gaps): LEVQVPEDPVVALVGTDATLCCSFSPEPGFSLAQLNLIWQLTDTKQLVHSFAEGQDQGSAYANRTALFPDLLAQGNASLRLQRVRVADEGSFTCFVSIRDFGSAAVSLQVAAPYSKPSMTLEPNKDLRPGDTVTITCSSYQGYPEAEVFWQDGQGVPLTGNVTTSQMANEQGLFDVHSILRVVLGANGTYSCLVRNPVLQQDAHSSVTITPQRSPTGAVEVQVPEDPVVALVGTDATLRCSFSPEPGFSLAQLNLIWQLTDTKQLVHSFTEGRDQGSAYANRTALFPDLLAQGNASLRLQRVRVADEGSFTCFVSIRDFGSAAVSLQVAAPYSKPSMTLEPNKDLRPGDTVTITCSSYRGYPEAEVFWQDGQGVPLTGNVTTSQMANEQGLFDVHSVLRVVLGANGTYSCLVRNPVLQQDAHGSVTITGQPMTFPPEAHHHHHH
human B7-H3 on human tumor cells (MCF-7, HT29, NCI-N87, HCC1806, HCC827) (human), sequence (Q5ZPR3 29-534): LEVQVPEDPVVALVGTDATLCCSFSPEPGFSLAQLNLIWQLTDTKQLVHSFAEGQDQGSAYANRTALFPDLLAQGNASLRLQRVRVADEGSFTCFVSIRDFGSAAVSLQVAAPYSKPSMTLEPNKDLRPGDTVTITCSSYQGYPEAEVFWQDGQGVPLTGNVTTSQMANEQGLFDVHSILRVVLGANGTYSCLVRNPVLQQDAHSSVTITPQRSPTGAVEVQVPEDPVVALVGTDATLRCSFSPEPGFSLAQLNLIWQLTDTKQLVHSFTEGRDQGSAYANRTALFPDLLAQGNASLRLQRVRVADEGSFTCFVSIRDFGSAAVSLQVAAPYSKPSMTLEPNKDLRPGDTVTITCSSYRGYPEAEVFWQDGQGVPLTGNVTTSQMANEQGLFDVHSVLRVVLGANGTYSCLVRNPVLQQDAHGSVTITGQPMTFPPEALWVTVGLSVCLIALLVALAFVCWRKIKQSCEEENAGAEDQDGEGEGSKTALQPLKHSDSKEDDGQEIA
human B7-H3-4Ig on CHO-S cells (CHO-S-human B7-H3-4Ig) (human), sequence (Q5ZPR3 29-534): as above

B1: control B7-H3 antibody DS7300 (antibody, INN chains, looked up, V domains shown)
VH: QVQLVQSGAEVKKPGSSVKVSCKASGYTFTNYVMHWVRQAPGQGLEWMGYINPYNDDVKYNEKFKGRVTITADESTSTAYMELSSLRSEDTAVYYCARWGYYGSPLYYFDYWGQGTLVTVSS
VL: EIVLTQSPATLSLSPGERATLSCRASSRLIYMHWYQQKPGQAPRPLIYATSNLASGIPARFSGSGSGTDFTLTISSLEPEDFAVYYCQQWNSNPPTFGQGTKVEIK
- Endocytosis EC50 on HCC827 cells (PHrodo, flow cytometry) [1]: 0.0152 µg/mL
- Endocytosis EC50 on HCC1806 cells (PHrodo, flow cytometry) [1]: 0.0572 µg/mL
- Endocytosis EC50 on NCI-N87 cells (PHrodo, flow cytometry) [1]: 0.0241 µg/mL
- ADCC: EC50 of luciferase signal of Jurkat-NFAT/Luciferase-CD16A effector cells with CHO-S-human B7-H3-4Ig target cells [2]: 0.108 µg/mL
- EC50 [3]: 0.0138 µg/mL
- EC50 [4]: 0.0237 µg/mL
- EC50 [5]: 0.00336 µg/mL
- EC50 [6]: 0.00336 µg/mL
